Measurements: article PMC8323898, “Examination of the roles of a conserved motif in the PriA helicase in structure-specific DNA unwinding and processivity”

Key:
PriA triple variant [1] = molecular target: T1, PriA triple variant (Escherichia coli, UniProt P17888 1-732, W186A;R187A;Y190A); test: EMSA; same as wild type; 5 mM EDTA; EMSA: 0.1-10 nM PriA, 1 nM fork, 50 mM Tris-HCl pH 8.0, 0.1 mg/mL BSA, 2 mM DTT, 5 mM EDTA, 6% glycerol, 30 min on ice, 4% PAGE; conditions: protein: recombinant; tags: His-tag; label: radiolabel; fork 1:2, 60 bp parental duplex, two 38-nt ssDNA arms
PriA Arg187Ala [2] = molecular target: T2, PriA Arg187Ala (Escherichia coli, UniProt P17888 1-732, R187A); test: as above; conditions: protein: recombinant; tags: His-tag; label: radiolabel; fork 1:2, 60 bp parental duplex, two 38-nt ssDNA arms
PriA Tyr190Ala [3] = molecular target: T3, PriA Tyr190Ala (Escherichia coli, UniProt P17888 1-732, Y190A); test: as above; conditions: protein: recombinant; tags: His-tag; label: radiolabel; fork 1:2, 60 bp parental duplex, two 38-nt ssDNA arms
PriA Trp186Ala [4] = molecular target: T4, PriA Trp186Ala (Escherichia coli, UniProt P17888 1-732, W186A); test: as above; conditions: protein: recombinant; tags: His-tag; label: radiolabel; fork 1:2, 60 bp parental duplex, two 38-nt ssDNA arms
PriA wild-type [5] = molecular target: T5, PriA wild-type (Escherichia coli, UniProt P17888 1-732); test: EMSA; three shifted bands; 5 mM EDTA; EMSA: 0.1-10 nM PriA, 1 nM fork, 50 mM Tris-HCl pH 8.0, 0.1 mg/mL BSA, 2 mM DTT, 5 mM EDTA, 6% glycerol, 30 min on ice, 4% PAGE; conditions: protein: recombinant; tags: N-terminal His6; label: radiolabel; fork 1:2, 60 bp parental duplex, two 38-nt ssDNA arms
PriA triple variant [6] = molecular target: T1, PriA triple variant; test: EMSA; similar to wild type; 5 mM EDTA; EMSA: 0.1-10 nM PriA, 1 nM fork, 50 mM Tris-HCl pH 8.0, 0.1 mg/mL BSA, 2 mM DTT, 5 mM EDTA, 6% glycerol, 30 min on ice, 4% PAGE; conditions: protein: recombinant; tags: His-tag; label: radiolabel; fork 1:2 (60 bp) 2:3 (33 bp nascent lagging) 1:4 (38 bp nascent leading), 5-nt lagging gap
PriA Arg187Ala [7] = molecular target: T2, PriA Arg187Ala; test: as above; conditions: protein: recombinant; tags: His-tag; label: radiolabel; fork 1:2 (60 bp) 2:3 (33 bp nascent lagging) 1:4 (38 bp nascent leading), 5-nt lagging gap
PriA Tyr190Ala [8] = molecular target: T3, PriA Tyr190Ala; test: as above; conditions: protein: recombinant; tags: His-tag; label: radiolabel; fork 1:2 (60 bp) 2:3 (33 bp nascent lagging) 1:4 (38 bp nascent leading), 5-nt lagging gap
PriA Trp186Ala [9] = molecular target: T4, PriA Trp186Ala; test: as above; conditions: protein: recombinant; tags: His-tag; label: radiolabel; fork 1:2 (60 bp) 2:3 (33 bp nascent lagging) 1:4 (38 bp nascent leading), 5-nt lagging gap
PriA wild-type [10] = molecular target: T5, PriA wild-type; test: EMSA; one dominant shifted species; 5 mM EDTA; EMSA: 0.1-10 nM PriA, 1 nM fork, 50 mM Tris-HCl pH 8.0, 0.1 mg/mL BSA, 2 mM DTT, 5 mM EDTA, 6% glycerol, 30 min on ice, 4% PAGE; conditions: protein: recombinant; tags: N-terminal His6; label: radiolabel; fork 1:2 (60 bp) 2:3 (33 bp nascent lagging) 1:4 (38 bp nascent leading), 5-nt lagging gap

Measured: binding result

B1: two-stranded fork (1b-98/3L-98) (mixed)
DNA 1: GCAAGCCTTCTACAGGTCGACCGTCCATGGCGACTCGAGACCGCAATACGGATAAGGGCTGAGCACGCCGACGAACATTCACCACGCCAGACCACGTA
DNA 2: GACTATCTACGTCCGAGGCTCGCGCCGCAGACTCATTTAGCCCTTATCCGTATTGCGGTCTCGAGTCGCCATGGACGGTCGACCTGTAGAAGGCTTGC
binds: PriA triple variant [1] | PriA Arg187Ala [2] | PriA Tyr190Ala [3] | PriA Trp186Ala [4] | PriA wild-type [5]

B2: four-stranded fork (1b-98/3L-98/b-33/11b-38) (mixed)
DNA 1: B1 DNA 1
DNA 2: B1 DNA 2
DNA 3: AGTCTGCGGCGCGAGCCTCGGACGTAGATAGTC
DNA 4: TACGTGGTCTGGCGTGGTGAATGTTCGTCGGCGTGCTC
binds: PriA triple variant [6] | PriA Arg187Ala [7] | PriA Tyr190Ala [8] | PriA Trp186Ala [9] | PriA wild-type [10]
